Results published in the Human Domainome abundance scans (Beltran et al. 2025).
± gives the uncertainty stated by the source.

B1: DnaJ homolog subfamily C member 5, residues 16 to 77; numbered along this chain, Q9H3Z4 (parent)
chain: LYHVLGLDKNATSDDIKKSYRKLALKYHPDKNPDNPEAADKFKEINNAHAILTDATKRNIYD

Variants of: B1
Experiment: abundance fitness (aPCA) (normalised: wild type 0, dead -1); higher = more abundant; growth selection in yeast, the domain comes from the species named
Conditions: Homo sapiens

Variant | abundance fitness
A50F | -0.61 ± 0.15
A50W | -0.748 ± 0.13
A50M | -0.087 ± 0.089
I51A | -0.146 ± 0.11
A55E | -0.061 ± 0.061
A55Q | 0.028 ± 0.11
A55L | -0.26 ± 0.093
A55R | -0.156 ± 0.072
N10D | -0.343 ± 0.15
N10L | -0.342 ± 0.075
N10W | -0.4 ± 0.068
N10A | -0.293 ± 0.062
N10E | -0.343 ± 0.098
K17L | -0.18 ± 0.07
D54T | -0.512 ± 0.16
A38F | -0.194 ± 0.15
A38P | -0.559 ± 0.14
A38Q | -0.371 ± 0.12
A38H | -0.169 ± 0.13
P33K | 0.209 ± 0.14
P33C | -0.327 ± 0.11
P33D | -0.16 ± 0.14
R21A | 0.379 ± 0.48
G6P | -0.799 ± 0.12

Variant | abundance fitness
G6R | -0.488 ± 0.11
G6A | -0.485 ± 0.1
L23M | -0.209 ± 0.12
D30A | 0.14 ± 0.09
E37N | 0.042 ± 0.17
E37T | -0.011 ± 0.071
E37P | -0.441 ± 0.12
Y2K | -0.692 ± 0.13
Y2V | -0.873 ± 0.13
Y2H | -0.492 ± 0.12
Y2C | -0.686 ± 0.11
Y2M | -0.422 ± 0.12
A48Q | -0.82 ± 0.18
A48G | -0.455 ± 0.095
H49C | -0.405 ± 0.15
H49Q | -0.161 ± 0.15
H49V | -0.091 ± 0.088
A11Q | -1.25 ± 0.33
K26M | 0.021 ± 0.083
K26G | -0.415 ± 0.079
P29Y | -0.413 ± 0.097
P29D | -0.111 ± 0.092
K18C | -0.101 ± 0.1
K18M | 0.06 ± 0.09

Variant | abundance fitness
K18R | -0.13 ± 0.062
R58M | -0.471 ± 0.12
D14H | -0.394 ± 0.26
D14G | -0.401 ± 0.065
D14P | -0.348 ± 0.11
D14A | -0.166 ± 0.094
H3K | -0.133 ± 0.17
H3T | -0.017 ± 0.08
H3F | -0.216 ± 0.22
H3D | -0.528 ± 0.24
T12C | -0.235 ± 0.12
T12M | -0.678 ± 0.12
T12W | -1.31 ± 0.12
I45Y | -0.366 ± 0.14
I45K | -0.263 ± 0.093
L1E | -0.14 ± 0.13
L1A | -0.124 ± 0.17
Y20H | 0.109 ± 0.25
E44G | -0.527 ± 0.098
E44N | -0.196 ± 0.12
E44P | -0.626 ± 0.1
E44Y | -0.742 ± 0.2
T53M | -0.157 ± 0.074
T53C | -0.126 ± 0.14

Variant | abundance fitness
T53P | -0.678 ± 0.083
T53L | -0.032 ± 0.054
T56A | -0.233 ± 0.15
I60H | -0.135 ± 0.2
I60R | 0.08 ± 0.059
I60W | 0.008 ± 0.09
I60A | 0.257 ± 0.092
I60V | 0.176 ± 0.093
L7R | -0.608 ± 0.07
L7A | -0.298 ± 0.085
L7Y | -1.01 ± 0.22
L7S | -0.345 ± 0.087
L5T | -0.368 ± 0.27
L5P | -0.221 ± 0.14
D8W | -0.648 ± 0.086
D8H | -0.42 ± 0.14
D8C | -0.497 ± 0.098
D8I | -0.807 ± 0.11
S13G | -0.376 ± 0.077
S13F | -0.267 ± 0.091
K57W | -0.99 ± 0.13
K57L | -0.399 ± 0.079
K57V | -0.656 ± 0.1
K57D | -0.079 ± 0.14

Variant | abundance fitness
K57E | -0.023 ± 0.096
N59D | -0.234 ± 0.19
N59V | -0.121 ± 0.1
N59S | -0.029 ± 0.089
N59Q | 0.007 ± 0.1
N59M | -0.179 ± 0.1
A39V | -0.01 ± 0.082
Y61E | 0.157 ± 0.12
Y61N | -0.199 ± 0.16
F42S | -0.219 ± 0.097
F42E | -0.192 ± 0.11
F42G | -0.278 ± 0.07
F42H | -0.421 ± 0.17
F42W | -0.05 ± 0.073
D34Q | -0.206 ± 0.089
D34M | -0.694 ± 0.12
D34G | 0.068 ± 0.073
A24K | -0.034 ± 0.057
I16A | -0.32 ± 0.089
I16L | -0.285 ± 0.065
I16C | -0.44 ± 0.12
I16G | -0.442 ± 0.073
I16Q | -0.437 ± 0.1
I16P | -0.587 ± 0.095

Variant | abundance fitness
I16M | -0.65 ± 0.091
N46D | -0.578 ± 0.24
N46Q | -0.035 ± 0.17
N46R | -0.017 ± 0.072
N46T | 0.256 ± 0.092
Y27P | -0.61 ± 0.16
Y27K | -0.379 ± 0.12
Y27N | -0.83 ± 0.36
Y27H | 0.185 ± 0.24
Y27R | -0.543 ± 0.079
L52S | -0.493 ± 0.098
L52G | -0.555 ± 0.094
L52E | -0.293 ± 0.12
L52N | -1.02 ± 0.42
L52V | -0.524 ± 0.085
N35M | -0.431 ± 0.088
N35F | -0.309 ± 0.17
N32T | -0.251 ± 0.086
N32Y | -0.67 ± 0.14
V4W | -0.687 ± 0.083
V4Q | -0.546 ± 0.11
V4A | 0.034 ± 0.085
V4C | -0.056 ± 0.1
K41S | -0.223 ± 0.12

Variant | abundance fitness
K41I | -0.211 ± 0.14
L25R | -0.069 ± 0.067
L25C | -0.102 ± 0.11
D62M | -0.743 ± 0.15
K22R | 0.041 ± 0.075
K22W | -0.339 ± 0.094
K22S | 0.166 ± 0.099
K43D | 0.015 ± 0.3
D15A | -0.042 ± 0.069
D15T | -0.367 ± 0.11
D15W | -0.271 ± 0.069
D15R | -0.693 ± 0.084
S19I | -0.762 ± 0.4
S19H | -0.333 ± 0.27
S19F | -0.88 ± 0.16
S19D | -0.485 ± 0.19
S19G | -0.3 ± 0.065
D40Y | -0.05 ± 0.16
D40K | 0.385 ± 0.11
D40T | 0.054 ± 0.085
D40C | -0.012 ± 0.095
D40A | 0.137 ± 0.086
D40R | 0.271 ± 0.071
